Here are results for seven molecules from US20120316071A1 (published 2012).

Numbering of substitutions follows the chain as printed. In names and notes the source's numbering stands.

The target of test [1] is T1, Recombinant Human DLL4 (R&D Systems Cat#1506-D4/CF) (human, UniProt Q9NR61 27-524).
T1 construct: bought recombinant protein; also called rHuman DLL4; delta-like protein 4
Briefly: 96-well plate ECL, DLL4 coated.

The target in test [2] is T2, rHuman EGF R/Fc Chimera, CF (R&D Systems Cat#344-ER) (human, UniProt P00533 25-645).
T2 construct: Bought recombinant Fc chimera; not shown: Fc of the bought R&D Systems chimera
Briefly: ECL Multispot (MSD), antigen spotted on plate, Fab 0.1 uM.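 Note: ratio compares each antigen's electrochemiluminescence to the blank within the same well, with a ratio of at least 4 counted as a binding Fab hit.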

Test [3] deals with T3, rHuman ErbB2/Fc Chimera, CF (R&D Systems Cat#1129-ER) (human, UniProt P04626 23-652).
T3 construct: Bought recombinant Fc chimera; not shown: Fc of the bought R&D Systems chimera
The test is described as above.

The target in test [4] is T4, rHuman P-Cadherin/Fc Chimera, CF (R&D Systems Cat#861-PC) (human, UniProt P22223 108-654).
T4 construct: Bought recombinant Fc chimera; not shown: Fc of the bought R&D Systems chimera
The test is described as above.

In test [5] the target is T5, rHuman Erythropoietin R/Fc Chimera, CF (R&D Systems Cat#963-ER) (human, UniProt P19235 25-250).
T5 construct: Bought recombinant Fc chimera; also called EPO R; EPO R/Fc; not shown: Fc of the bought R&D Systems chimera
T5 sequence (looked up): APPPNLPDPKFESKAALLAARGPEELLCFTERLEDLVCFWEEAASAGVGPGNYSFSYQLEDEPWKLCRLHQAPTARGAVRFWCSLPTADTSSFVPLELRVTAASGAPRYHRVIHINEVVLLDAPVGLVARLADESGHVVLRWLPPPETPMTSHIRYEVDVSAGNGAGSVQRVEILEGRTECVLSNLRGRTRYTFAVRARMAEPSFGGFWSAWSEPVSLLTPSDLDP
The description is as above.

In test [6] the target is T6, rHuman CD44/Fc Chimera, CF (R&D Systems Cat#3660-CD) (human, UniProt P16070 21-220).
T6 construct: Bought recombinant Fc chimera; not shown: Fc of the bought R&D Systems chimera
The test is described as above.

Test [7] concerns the target T7, Recombinant Human DLL4 (R&D Systems Cat#1506-D4/CF) (human, UniProt Q9NR61 27-524).
T7 construct: Bought recombinant protein; also called delta-like protein 4; rHuman DLL4
Described as above.

Test [8] has as its target T8, rHuman IGF-1 sR, CF (R&D Systems Cat#391-GR) (human, UniProt P08069 31-932).
T8 construct: Bought recombinant soluble receptor; also called insulin-like growth factor-1 soluble receptor
Described as above.

Test [9] has as its target T9, rHuman HGF R/c-MET/Fc Chimera, CF (R&D Systems Cat#358-MT/CF) (human, UniProt P08581 25-932).
T9 construct: Bought recombinant Fc chimera; also called HGF R/Fc; not shown: Fc of the bought R&D Systems chimera
The test is described as above.

Test [10] has as its target T10, rHuman Notch-1/Fc Chimera, CF (R&D Systems Cat#3647-TK) (human, UniProt P46531 19-526).
T10 construct: Bought recombinant Fc chimera; not shown: Fc of the bought R&D Systems chimera
The test is described as above.

Test [11] concerns the target T2, rHuman EGF R/Fc Chimera, CF (R&D …). Briefly: ECL Multispot (MSD), antigen spotted on plate, Fab 0.01 uM.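 Note: electrochemiluminescence of each antigen spot divided by the blank of the same well, with a value of 4 or above scoring the Fab as a binding hit.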
Test [12] has as its target T3, rHuman ErbB2/Fc Chimera, CF (R&D …). Described as above.
In test [13] the target is T4, rHuman P-Cadherin/Fc Chimera, CF (R&D …). The description is as above.
Test [14] deals with T5, rHuman Erythropoietin R/Fc Chimera, CF …. The description is as above.
The target of test [15] is T6, rHuman CD44/Fc Chimera, CF (R&D Systems …). Described as above.
The target in test [16] is T7, Recombinant Human DLL4 (R&D Systems …). The description is as above.
Test [17] has as its target T8, rHuman IGF-1 sR, CF (R&D Systems …). Described as above.
Test [18] concerns the target T9, rHuman HGF R/c-MET/Fc Chimera, CF (R&D …). The description is as above.
Test [19] deals with T10, rHuman Notch-1/Fc Chimera, CF (R&D …). Described as above.
Test [20] deals with T11, rHuman ErbB2/Fc Chimera, CF (R&D Systems Cat#1129-ER) (human, UniProt P04626 23-652).
T11 construct: Bought reagent; also called human epidermal growth factor 2 receptor
Briefly: ECL Multispot (MSD) assay; antigen spotted on plate, Fab in solution.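 Note: fab bound 1 h at 20 °C, detected by TAG-labelled antibody electrochemiluminescence, signal relative to each well's blank, ratio of 4 or more marks a hit.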

Test [21] concerns the target T12, rHuman HGF R/c-MET/Fc Chimera, CF (R&D Systems Cat#358-MT/CF) (human, UniProt P08581 25-932).
T12 construct: Bought reagent; also called HGF R/Fc; hepatocyte growth factor receptor
The test is described as above.

Test [22] deals with T13, rHuman CD44/Fc Chimera, CF (R&D Systems Cat#3660-CD) (human, UniProt P16070 21-220).
T13 construct: Bought reagent
The test is described as above.

Test [23] concerns the target T14, rHuman EGF R/Fc Chimera, CF (R&D Systems Cat#344-ER) (human, UniProt P00533 25-645).
T14 construct: Bought reagent; also called epidermal growth factor receptor
Described as above.

Test [24] has as its target T15, rHuman Notch-1/Fc Chimera, CF (R&D Systems Cat#3647-TK) (human, UniProt P46531 19-526).
T15 construct: Bought reagent
The test is described as above.

In test [25] the target is T16, rHuman Erythropoietin R/Fc Chimera, CF (R&D Systems Cat#963-ER) (human, UniProt P19235 25-250).
T16 construct: Bought reagent; also called EPO R; Epo R/Fc
T16 sequence (looked up): T5 sequence (looked up)
The description is as above.

The target of test [26] is T17, rHuman IGF-1 sR, CF (R&D Systems Cat#391-GR) (human, UniProt P08069 31-932).
T17 construct: Bought soluble receptor; the column head 'IGF-1' means IGF-1 sR; also called insulin-like growth factor-1 soluble receptor
Described as above.

In test [27] the target is T18, rHuman P-Cadherin/Fc Chimera, CF (R&D Systems Cat#861-PC) (human, UniProt P22223 108-654).
T18 construct: Bought reagent
Described as above.

B1: Fab VH1-46_IGHD6-6*01_IGHJ1*01 S103P & L6_IGKJ1*01 (Fab, V domains shown)
VH: QVQLVQSGAEVKKPGASVKVSCKASGYTFTSYYMHWVRQAPGQGLEWMGIINPSGGSTSYAQKFQGRVTMTRDTSTSTVYMELSSLRSEDTAVYYCAREEYSPSSAEYFQHWGQGTLVTVSS
VL: not shown
notes: Fab
B1: the “fold signal/noise ratio against the parent Fab” value in test [1] is about 3 fold.

B2: Fab VH1-46_IGHD6-6*01_IGHJ1*01 S104H & L6_IGKJ1*01 (Fab, V domains shown)
VH: B1 VH with P103S, S104H
VL: not shown
notes: Fab made in E. coli; The heavy chain variable region was cloned into Plasmid A (CH1, His6 and Flag tags) and the kappa light chain variable region into Plasmid C (kappa CL)
For B2, the ECL signal/noise ratio is 0.6 in [2]; 1 in test [3]; 0.8 in [4]; 1 in test [5]; 1.1 in [6]; 88.3 in test [7]. The ECL signal/noise ratio in [8] came to 1; in test [9], 0.8; in test [10] it was 0.8; in [11], 1; in [12] it was 1; in test [13], 1. Moreover, the ECL signal/noise ratio in test [14] is 1.2; in [15], 1.4; in test [16] it was 27; in [17], 1.5; in [18], 1; in test [19] it was 1.4.

B3: Fab VH1-46_IGHD6-6*01_IGHJ1*01 S103A & L6_IGKJ1*01 (Fab, V domains shown)
VH: B1 VH with P103A
VL: not shown
notes: as for B2
As for B3, the ECL signal/noise ratio in test [2] was determined as 1.2; in [3], 1; in [4], 1.4; in [5] it was 1.4; in test [6], 1.4; in test [7], 31.6. For the same molecule, the ECL signal/noise ratio in [8] stood at 1.2; in test [9] it was 1; in [10] it was 1.2; in test [11], 1.3; in [12], 0.9; in test [13], 1.3. The ECL signal/noise ratio in [14] worked out at 1.1; in [15], 1.3; in [16] it was 4.5; in test [17], 1.1; in test [18], 1.2; in test [19], 1.4.

B4: Fab VH1-46_IGHD6-6*01_IGHJ1*01 S102A/S103P/S104F (APF) & L6_IGKJ1*01 R24G/Q27L (Fab, V domains shown)
VH: B1 VH with S102A, S104F
VL: EIVLTQSPATLSLSPGERATLSCGASLSVSSYLAWYQQKPGQAPRLLIYDASNRATGIPARFSGSGSGTDFTLTISSLEPEDFAVYYCQQRSNWPPWTFGQGTKVEIKR
notes: Double mutant that arose inadvertently in the PCR; Fab format as for the parent (CH1 with His6/Flag tags, kappa CL); also called APF / R24G/Q27L
Take B4: the ECL signal in test [20] worked out at 225; in [21], 185; in test [22] it was 119; in test [23], 252; in [24], 177; in [25], 191. The ECL signal in test [26] was 49; in test [27] it was 236.

B5: Fab VH1-46_IGHD6-6*01_IGHJ1*01 S102A/S103P/S104F (APF) & L6_IGKJ1*01 Y32V (Fab, V domains shown)
VH: B1 VH with S102A, S104F
VL: B4 VL with G24R, L27Q, Y32V
notes: Fab format as for the parent (CH1 with His6/Flag tags, kappa CL); also called APF / Y32V
For the molecule B5, the ECL signal was determined as 156 in test [20]; 283 in [21]; 120 in test [22]; 57 in [23]; 56 in test [24]; 144 in test [25]. In addition, the ECL signal was 151 in test [26] and 186 in test [27].

B6: Fab VH1-46_IGHD6-6*01_IGHJ1*01 S103P & L6_IGKJ1*01 (Fab, V domains shown)
VH: B1 VH
VL: not shown
notes: as for B2
For the molecule B6, the ECL signal/noise ratio in [2] worked out at 2.3; in [3] it was 2.2; in test [4], 1.4; in test [5], 2.4; in [6], 2.1; in [7], 139. Moreover, the ECL signal/noise ratio in test [8] was 2; in test [9] it was 1.9; in test [10] it was 2.6; in test [11], 1.8; in test [12] it was 2; in test [13], 1.1. Besides, the ECL signal/noise ratio was determined as 1.8 in test [14]; 1.5 in test [15]; 22.9 in [16]; 1 in test [17]; 1.2 in [18]; 1.8 in [19].

B7: Fab VH1-46_IGHD6-6*01_IGHJ1*01 S104F & L6_IGKJ1*01 (Fab, V domains shown)
VH: B1 VH with P103S, S104F
VL: not shown
notes: Fab
Turning to B7, in test [1], the “fold signal/noise ratio against the parent Fab” value is at least 4 fold.
